Measurements: PMC5133854
Each block holds one substance with its values, some of them ahead of it.

Tests used:
[1] = biological target: purified porcine gastric mucin (pPGM) (porcine); assay: AFM single-molecule force spectroscopy; Gal-3 covalently attached to the AFM tip, pPGM covalently attached to the glass slide; PBS pH 7.4; force-volume mode
Q9RGN5 = assay: AFM single-molecule force spectroscopy; MUB covalently attached to both the AFM tip and the glass slide; PBS pH 7.4; force-volume mode; repeated after adding free MUB (0.05 mg/mL) or anti-Mub antibody (0.05 mg/mL); conditions: other: AFM single-molecule force spectroscopy
[2] = biological target: purified porcine gastric mucin (pPGM) (porcine); assay: AFM single-molecule force spectroscopy; MUB covalently attached to the AFM tip, pPGM covalently attached to the glass slide; PBS pH 7.4; force-volume mode, 2 um/s, 1024 force-distance curves; repeated on the same region after adding free sugars or anti-Mub antibody (0.05 mg/mL)
[3] = biological target: mucus-binding protein (MUB) from Lactobacillus reuteri ATCC 53608 (Lactobacillus reuteri ATCC 53608) (UniProt Q9RGN5); assay: AFM single-molecule force spectroscopy; MUB covalently attached to both the AFM tip and the glass slide; PBS pH 7.4; force-volume mode; repeated after adding free MUB (0.05 mg/mL) or anti-Mub antibody (0.05 mg/mL)

- binding energy [1]: 0.79 aJ
- energy (integration of the adhesive peaks) [1]: 3.08 aJ
Substance: Galectin-3 (Gal-3) (from UniProt P17931 1-250) (natural protein)

Substance: mucus-binding protein (MUB) from Lactobacillus reuteri ATCC 53608
- percent of force curves with unfolding events (Q9RGN5): the numbers of unfolding events in the force volume maps were 71% of the 1024 force curves

- modal value of the rupture adhesion force [2]: 380 pN
- modal value of the rupture adhesion force (PBS, before the antibody) [2]: 482 pN
- modal value of the rupture adhesion force [3]: 209 pN
Substance: mucus-binding protein (MUB) from Lactobacillus reuteri ATCC 53608 (from UniProt Q9RGN5 1-3269) (natural protein)
